From IntAct's records for PubMed 22252508

B1: DNA mismatch repair protein Mlh1 (Homo sapiens), P40692 (parent)
chain: MSFVAGVIRRLDETVVNRIAAGEVIQRPANAIKEMIENCLDAKSTSIQVIVKEGGLKLIQIQDNGTGIRKEDLDIVCERFTTSKLQSFEDLASISTYGFRGEALASISHVAHVTITTKTADGKCAYRASYSDGKLKAPPKPCAGNQGTQITVEDLFYNIATRRKALKNPSEEYGKILEVVGRYSVHNAGISFSVKKQGETVADVRTLPNASTVDNIRSIFGNAVSRELIEIGCEDKTLAFKMNGYISNANYSVKKCIFLLFINHRLVESTSLRKAIETVYAAYLPKNTHPFLYLSLEISPQNVDVNVHPTKHEVHFLHEESILERVQQHIESKLLGSNSSRMYFTQTLLPGLAGPSGEMVKSTTSLTSSSTSGSSDKVYAHQMVRTDSREQKLDAFLQPLSKPLSSQPQAIVTEDKTDISSGRARQQDEEMLELPAPAEVAAKNQSLEGDTTKGTSEMSEKRGPTSSNPRKRHREDSDVEMVEDDSRKEMTAACTPRRRIINLTSVLSLQEEINEQGHEVLREMLHNHSFVGCVNPQWALAQHQTKLYLLNTTKLSEELFYQILIYDFANFGVLRLSEPAPLFDLAMLALDSPESGWTEEDGPKEGLAEYIVEFLKKKAEMLADYFSLEIDEEGNLIGLPLLIDNYVPPLEGLPIFILRLATEVNWDEEKECFESLSKECAMFYSIRKQYISEESTLSGQQSEVPGSIPNSWKWTVEHIVYKALRSHILPPKHFTEDGNILQLANLPDLYKVFERC
partner: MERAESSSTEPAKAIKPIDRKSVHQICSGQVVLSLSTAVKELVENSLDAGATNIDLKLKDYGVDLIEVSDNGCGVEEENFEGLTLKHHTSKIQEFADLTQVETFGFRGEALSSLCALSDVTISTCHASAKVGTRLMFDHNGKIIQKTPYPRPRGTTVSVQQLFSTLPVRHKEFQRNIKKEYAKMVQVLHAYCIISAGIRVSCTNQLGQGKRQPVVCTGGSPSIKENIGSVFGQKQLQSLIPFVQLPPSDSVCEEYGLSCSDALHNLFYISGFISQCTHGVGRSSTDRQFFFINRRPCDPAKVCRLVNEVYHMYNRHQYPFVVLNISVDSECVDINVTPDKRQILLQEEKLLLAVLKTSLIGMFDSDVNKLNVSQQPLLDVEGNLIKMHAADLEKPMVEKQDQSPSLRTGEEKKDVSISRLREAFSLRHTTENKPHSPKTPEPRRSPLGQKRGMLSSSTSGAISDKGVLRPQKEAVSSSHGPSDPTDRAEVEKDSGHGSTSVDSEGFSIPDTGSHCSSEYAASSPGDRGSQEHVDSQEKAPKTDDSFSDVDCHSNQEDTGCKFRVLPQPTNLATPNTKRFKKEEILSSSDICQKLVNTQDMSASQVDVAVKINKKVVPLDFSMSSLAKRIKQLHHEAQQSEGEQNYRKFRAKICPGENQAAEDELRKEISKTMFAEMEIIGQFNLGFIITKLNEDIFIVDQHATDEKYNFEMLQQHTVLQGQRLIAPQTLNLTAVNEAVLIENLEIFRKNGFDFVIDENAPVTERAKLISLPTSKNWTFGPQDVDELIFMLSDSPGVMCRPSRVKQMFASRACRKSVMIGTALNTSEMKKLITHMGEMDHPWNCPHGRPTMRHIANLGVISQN
B2: Actin nucleation-promoting factor WAS (Homo sapiens), P42768 (parent)
chain: MSGGPMGGRPGGRGAPAVQQNIPSTLLQDHENQRLFEMLGRKCLTLATAVVQLYLALPPGAEHWTKEHCGAVCFVKDNPQKSYFIRLYGLQAGRLLWEQELYSQLVYSTPTPFFHTFAGDDCQAGLNFADEDEAQAFRALVQEKIQKRNQRQSGDRRQLPPPPTPANEERRGGLPPLPLHPGGDQGGPPVGPLSLGLATVDIQNPDITSSRYRGLPAPGPSPADKKRSGKKKISKADIGAPSGFKHVSHVGWDPQNGFDVNNLDPDLRSLFSRAGISEAQLTDAETSKLIYDFIEDQGGLEAVRQEMRRQEPLPPPPPPSRGGNQLPRPPIVGGNKGRSGPLPPVPLGIAPPPPTPRGPPPPGRGGPPPPPPPATGRSGPLPPPPPGAGGPPMPPPPPPPPPPPSSGNGPAPPPLPPALVPAGGLAPGGGRGALLDQIRQGIQLNKTPGAPESSALQPPPQSSEGLVGALMHVMQKRSRAIHSSDEGEDQAGDEDEDDEWDD
B3: Tumor protein 63 (Homo sapiens), Q9H3D4 (parent)
chain: MNFETSRCATLQYCPDPYIQRFVETPAHFSWKESYYRSTMSQSTQTNEFLSPEVFQHIWDFLEQPICSVQPIDLNFVDEPSEDGATNKIEISMDCIRMQDSDLSDPMWPQYTNLGLLNSMDQQIQNGSSSTSPYNTDHAQNSVTAPSPYAQPSSTFDALSPSPAIPSNTDYPGPHSFDVSFQQSSTAKSATWTYSTELKKLYCQIAKTCPIQIKVMTPPPQGAVIRAMPVYKKAEHVTEVVKRCPNHELSREFNEGQIAPPSHLIRVEGNSHAQYVEDPITGRQSVLVPYEPPQVGTEFTTVLYNFMCNSSCVGGMNRRPILIIVTLETRDGQVLGRRCFEARICACPGRDRKADEDSIRKQQVSDSTKNGDGTKRPFRQNTHGIQMTSIKKRRSPDDELLYLPVRGRETYEMLLKIKESLELMQYLPQHTIETYRQQQQQQHQHLLQKQTSIQSPSSYGNSSPPLNKMNSMNKLPSVSQLINPQQRNALTPTTIPDGMGANIPMMGTHMPMAGDMNGLSPTQALPPPLSMPSTSHCTPPPPYPTDCSIVSFLARLGCSSCLDYFTTQGLTTIYQIEHYSMDDLASLKIPEQFRHAIWKGILDHRQLHEFSSPSHLLRTPSSASTVSVGSSETRGERVIDAVRFTLRQTISFPPRDEWNDFNFDMDARRNKQQRIKEEGE
partner: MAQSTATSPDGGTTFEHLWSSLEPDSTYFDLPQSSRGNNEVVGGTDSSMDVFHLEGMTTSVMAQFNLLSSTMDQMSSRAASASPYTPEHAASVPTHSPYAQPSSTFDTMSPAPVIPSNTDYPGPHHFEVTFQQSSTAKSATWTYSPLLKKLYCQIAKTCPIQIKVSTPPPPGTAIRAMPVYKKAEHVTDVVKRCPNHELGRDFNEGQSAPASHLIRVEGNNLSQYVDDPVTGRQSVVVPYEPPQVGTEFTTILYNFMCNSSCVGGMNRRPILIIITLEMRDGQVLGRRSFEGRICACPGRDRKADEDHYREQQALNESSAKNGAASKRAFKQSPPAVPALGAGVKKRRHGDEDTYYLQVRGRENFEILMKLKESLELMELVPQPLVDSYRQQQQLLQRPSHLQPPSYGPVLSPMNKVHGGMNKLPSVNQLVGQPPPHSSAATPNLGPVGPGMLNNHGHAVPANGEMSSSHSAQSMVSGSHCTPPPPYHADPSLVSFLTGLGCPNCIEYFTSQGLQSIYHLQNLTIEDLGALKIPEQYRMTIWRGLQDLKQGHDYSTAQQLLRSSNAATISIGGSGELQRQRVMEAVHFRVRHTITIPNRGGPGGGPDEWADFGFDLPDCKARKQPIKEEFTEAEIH

Variants of: B1
Settings: with pms2_human PMS2, P54278

| Variant | effect of a mutation on the interaction |
| --- | --- |
| I68N | disrupting interaction strength |
| I107R | disrupting interaction strength |
| Q149H | with no effect |
| L259S | with no effect |
| Y293D | disrupting interaction strength |
| N338S | with no effect |
| H381Y | with no effect |

Variants of: B2
Settings: with cdc42_human CDC42, P60953
Chain of cdc42_human CDC42, P60953 (P60953 whole entry, looked up): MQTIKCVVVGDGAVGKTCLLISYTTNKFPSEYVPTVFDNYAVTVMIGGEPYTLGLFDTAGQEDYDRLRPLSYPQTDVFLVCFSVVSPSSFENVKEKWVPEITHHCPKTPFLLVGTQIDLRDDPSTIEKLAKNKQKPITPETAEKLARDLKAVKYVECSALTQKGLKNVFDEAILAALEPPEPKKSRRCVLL

| Variant | effect of a mutation on the interaction |
| --- | --- |
| MSGGPMGGRPGGRGAPAVQQNIPSTLLQDHENQRLFEMLGRKCLTLATAVVQLYLALPPGAEHWTKEHCGAVCFVKDNPQKSYFIRLYGLQAGRLLWEQELYSQLVYSTPTPFFHTFAGDDCQAGLNFADEDEAQAFRALVQEKIQKRNQRQSGDRRQLPPPPTPANEERRGGLPPLPLHPGGDQGGPPVGPLSLGLATVDIQNPDITSSRYRGLPAPGPSPADKKRSGKKKISKADIGAPSGFKHVSHVGWDPQNGFDVNNLDPDLRSLFSRAGISEAQLTDAETSKLIYDFTEDQGGLEAVRQEMRRQEPLPPPPPPSRGGNQLPRPPIVGGNKGRSGPLPPVPLGIAPPPPTPRGPPPPGRGGPPPPPPPATGRSGPLPPPPPGAGGPPMPPPPPPPPPPPSSGNGPAPPPLPPALVPAGGLAPGGGRGALLDQIRQGIQLNKTPGAPESSALQPPPQSSEGLVGALMHVMQKRSRAIHSSDEGEDQAGDEDEDDEWDD [I294T] | decreasing interaction strength |
| MSGGPMGGRPGGRGAPAVQQNIPSTLLQDHENQRLFEMLGGKCLTLATAVVQLYLALPPGAEHWTKEHCGAVCFVKDNPQKSYFIRLYGLQAGRLLWEQELYSQLVYSTPTPFFHTFAGDDCQAGLNFADEDEAQAFRALVQEKIQKRNQRQSGDRRQLPPPPTPANEERRGGLPPLPLHPGGDQGGPPVGPLSLGLATVDIQNPDITSSRYRGLPAPGPSPADKKRSGKKKISKADIGAPSGFKHVSHVGWDPQNGFDVNNLDPDLRSLFSRAGISEAQLTDAETSKLIYDFIEDQGGLEAVRQEMRRQEPLPPPPPPSRGGNQLPRPPIVGGNKGRSGPLPPVPLGIAPPPPTPRGPPPPGRGGPPPPPPPATGRSGPLPPPPPGAGGPPMPPPPPPPPPPPSSGNGPAPPPLPPALVPAGGLAPGGGRGALLDQIRQGIQLNKTPGAPESSALQPPPQSSEGLVGALMHVMQKRSRAIHSSDEGEDQAGDEDEDDEWDD [R41G] | with no effect |
| MSGGPMGGRPGGRGAPAVQQNIPSTLLQDHENQRLFEMLGRKCLTLATAVVQLYLALPPGAEHWTKEHCGAVCFVKDNPQKSYFIRLYGLQAGRLLWEQELYSQLVYSTPTPFFHTFAGDDCQAGLNFADKDEAQAFRALVQEKIQKRNQRQSGDRRQLPPPPTPANEERRGGLPPLPLHPGGDQGGPPVGPLSLGLATVDIQNPDITSSRYRGLPAPGPSPADKKRSGKKKISKADIGAPSGFKHVSHVGWDPQNGFDVNNLDPDLRSLFSRAGISEAQLTDAETSKLIYDFIEDQGGLEAVRQEMRRQEPLPPPPPPSRGGNQLPRPPIVGGNKGRSGPLPPVPLGIAPPPPTPRGPPPPGRGGPPPPPPPATGRSGPLPPPPPGAGGPPMPPPPPPPPPPPSSGNGPAPPPLPPALVPAGGLAPGGGRGALLDQIRQGIQLNKTPGAPESSALQPPPQSSEGLVGALMHVMQKRSRAIHSSDEGEDQAGDEDEDDEWDD [E131K] | with no effect |

Variants of: B3
Settings: with p73_human TP73, O15350

| Variant | effect of a mutation on the interaction |
| --- | --- |
| I549T | decreasing interaction strength |
| F565L | decreasing interaction strength |
| S580P | decreasing interaction strength |
| R594P | decreasing interaction strength |
